Numbered stars: 1 amine (or outer) side, 2 acyl side, 3 side chain; on linkers, the order of the positions; unused ones are H or OH. Square brackets hold non-standard residues; d marks the D form. Side chains are listed from the residue outwards. Ends that are not written are not given here. * marks the point of attachment. C20 diacid = O=C(O)CCCCCCCCCCCCCCCCCCC(=O)*; γGlu = O=C(O)[C@H](CCC(=O)[*:2])N[*:1]; AEEA = NCCOCCOCC(=O)O; Aib = CC(C)(N)C(=O)O
B1: SEQ ID NO: 107 (peptide)
peptide: H[Aib]EGTFTSD[Aib]S[Aib]LLEGAALQRFIQWLV-NH2
modifications: N-terminus assumed
SMILES: CC[C@H](C)[C@H](NC(=O)[C@H](Cc1ccccc1)NC(=O)[C@H](CCCNC(=N)N)NC(=O)[C@H](CCC(N)=O)NC(=O)[C@H](CC(C)C)NC(=O)[C@H](C)NC(=O)[C@H](C)NC(=O)CNC(=O)[C@H](CCC(=O)O)NC(=O)[C@H](CC(C)C)NC(=O)[C@H](CC(C)C)NC(=O)C(C)(C)NC(=O)[C@H](CO)NC(=O)C(C)(C)NC(=O)[C@H](CC(=O)O)NC(=O)[C@H](CO)NC(=O)[C@@H](NC(=O)[C@H](Cc1ccccc1)NC(=O)[C@@H](NC(=O)CNC(=O)[C@H](CCC(=O)O)NC(=O)C(C)(C)NC(=O)[C@@H](N)Cc1c[nH]cn1)[C@@H](C)O)[C@@H](C)O)C(=O)N[C@@H](CCC(N)=O)C(=O)N[C@@H](Cc1c[nH]c2ccccc12)C(=O)N[C@@H](CC(C)C)C(=O)N[C@H](C(N)=O)C(C)C
B2: SEQ ID NO: 105 (peptide)
peptide: H[Aib]EGTFTSD[Aib]SGLLEGAALQRFIQWLV-NH2
modifications: N-terminus assumed
SMILES: CC[C@H](C)[C@H](NC(=O)[C@H](Cc1ccccc1)NC(=O)[C@H](CCCNC(=N)N)NC(=O)[C@H](CCC(N)=O)NC(=O)[C@H](CC(C)C)NC(=O)[C@H](C)NC(=O)[C@H](C)NC(=O)CNC(=O)[C@H](CCC(=O)O)NC(=O)[C@H](CC(C)C)NC(=O)[C@H](CC(C)C)NC(=O)CNC(=O)[C@H](CO)NC(=O)C(C)(C)NC(=O)[C@H](CC(=O)O)NC(=O)[C@H](CO)NC(=O)[C@@H](NC(=O)[C@H](Cc1ccccc1)NC(=O)[C@@H](NC(=O)CNC(=O)[C@H](CCC(=O)O)NC(=O)C(C)(C)NC(=O)[C@@H](N)Cc1c[nH]cn1)[C@@H](C)O)[C@@H](C)O)C(=O)N[C@@H](CCC(N)=O)C(=O)N[C@@H](Cc1c[nH]c2ccccc12)C(=O)N[C@@H](CC(C)C)C(=O)N[C@H](C(N)=O)C(C)C
B3: SEQ ID NO: 104 (peptide)
peptide: H[Aib]EGTFTSD[Aib]SRLLEGAALQRFIQWLV-NH2
modifications: N-terminus assumed
SMILES: CC[C@H](C)[C@H](NC(=O)[C@H](Cc1ccccc1)NC(=O)[C@H](CCCNC(=N)N)NC(=O)[C@H](CCC(N)=O)NC(=O)[C@H](CC(C)C)NC(=O)[C@H](C)NC(=O)[C@H](C)NC(=O)CNC(=O)[C@H](CCC(=O)O)NC(=O)[C@H](CC(C)C)NC(=O)[C@H](CC(C)C)NC(=O)[C@H](CCCNC(=N)N)NC(=O)[C@H](CO)NC(=O)C(C)(C)NC(=O)[C@H](CC(=O)O)NC(=O)[C@H](CO)NC(=O)[C@@H](NC(=O)[C@H](Cc1ccccc1)NC(=O)[C@@H](NC(=O)CNC(=O)[C@H](CCC(=O)O)NC(=O)C(C)(C)NC(=O)[C@@H](N)Cc1c[nH]cn1)[C@@H](C)O)[C@@H](C)O)C(=O)N[C@@H](CCC(N)=O)C(=O)N[C@@H](Cc1c[nH]c2ccccc12)C(=O)N[C@@H](CC(C)C)C(=O)N[C@H](C(N)=O)C(C)C
B4: SEQ ID NO: 106 (peptide)
peptide: H[Aib]EGTFTSD[Aib]SYLLEGAALQRFIQWLV-NH2
modifications: N-terminus assumed
SMILES: CC[C@H](C)[C@H](NC(=O)[C@H](Cc1ccccc1)NC(=O)[C@H](CCCNC(=N)N)NC(=O)[C@H](CCC(N)=O)NC(=O)[C@H](CC(C)C)NC(=O)[C@H](C)NC(=O)[C@H](C)NC(=O)CNC(=O)[C@H](CCC(=O)O)NC(=O)[C@H](CC(C)C)NC(=O)[C@H](CC(C)C)NC(=O)[C@H](Cc1ccc(O)cc1)NC(=O)[C@H](CO)NC(=O)C(C)(C)NC(=O)[C@H](CC(=O)O)NC(=O)[C@H](CO)NC(=O)[C@@H](NC(=O)[C@H](Cc1ccccc1)NC(=O)[C@@H](NC(=O)CNC(=O)[C@H](CCC(=O)O)NC(=O)C(C)(C)NC(=O)[C@@H](N)Cc1c[nH]cn1)[C@@H](C)O)[C@@H](C)O)C(=O)N[C@@H](CCC(N)=O)C(=O)N[C@@H](Cc1c[nH]c2ccccc12)C(=O)N[C@@H](CC(C)C)C(=O)N[C@H](C(N)=O)C(C)C
B5: SEQ ID NO: 108 (peptide)
peptide: H[Aib]EGTFTSD[Aib]SWLLEGAALQRFIQWLV-NH2
modifications: N-terminus assumed
SMILES: CC[C@H](C)[C@H](NC(=O)[C@H](Cc1ccccc1)NC(=O)[C@H](CCCNC(=N)N)NC(=O)[C@H](CCC(N)=O)NC(=O)[C@H](CC(C)C)NC(=O)[C@H](C)NC(=O)[C@H](C)NC(=O)CNC(=O)[C@H](CCC(=O)O)NC(=O)[C@H](CC(C)C)NC(=O)[C@H](CC(C)C)NC(=O)[C@H](Cc1c[nH]c2ccccc12)NC(=O)[C@H](CO)NC(=O)C(C)(C)NC(=O)[C@H](CC(=O)O)NC(=O)[C@H](CO)NC(=O)[C@@H](NC(=O)[C@H](Cc1ccccc1)NC(=O)[C@@H](NC(=O)CNC(=O)[C@H](CCC(=O)O)NC(=O)C(C)(C)NC(=O)[C@@H](N)Cc1c[nH]cn1)[C@@H](C)O)[C@@H](C)O)C(=O)N[C@@H](CCC(N)=O)C(=O)N[C@@H](Cc1c[nH]c2ccccc12)C(=O)N[C@@H](CC(C)C)C(=O)N[C@H](C(N)=O)C(C)C
B6: SEQ ID NO: 109 (peptide)
peptide: H[Aib]EGTFTSD[Aib]SELLEGAALQRFIQWLV-NH2
modifications: N-terminus assumed
SMILES: CC[C@H](C)[C@H](NC(=O)[C@H](Cc1ccccc1)NC(=O)[C@H](CCCNC(=N)N)NC(=O)[C@H](CCC(N)=O)NC(=O)[C@H](CC(C)C)NC(=O)[C@H](C)NC(=O)[C@H](C)NC(=O)CNC(=O)[C@H](CCC(=O)O)NC(=O)[C@H](CC(C)C)NC(=O)[C@H](CC(C)C)NC(=O)[C@H](CCC(=O)O)NC(=O)[C@H](CO)NC(=O)C(C)(C)NC(=O)[C@H](CC(=O)O)NC(=O)[C@H](CO)NC(=O)[C@@H](NC(=O)[C@H](Cc1ccccc1)NC(=O)[C@@H](NC(=O)CNC(=O)[C@H](CCC(=O)O)NC(=O)C(C)(C)NC(=O)[C@@H](N)Cc1c[nH]cn1)[C@@H](C)O)[C@@H](C)O)C(=O)N[C@@H](CCC(N)=O)C(=O)N[C@@H](Cc1c[nH]c2ccccc12)C(=O)N[C@@H](CC(C)C)C(=O)N[C@H](C(N)=O)C(C)C

Target: human GLP-1 receptor (hGLP1R) (human, UniProt P43220 24-463)
Assay: cell-based or functional assay

Point of comparison: H[Aib]EGTFTSDVSVLK([AEEA-AEEA-γGlu-C20 diacid])ETAA[Aib]QRFLEHLV-NH2 (also: K14 lipid also given as C18DA[γE][OEG][OEG]-) [SEQ ID NO: 101], “pEC50 hGLPR1” value 9.7 -log M. Against it:
- B1 — higher, 9.8 -log M
- H[Aib]EGTFTSDVSTLK([AEEA-AEEA-γGlu-C20 diacid])EFAAQQRFLEHLV-NH2 (also: K14 lipid also given as C18DA[γE][OEG][OEG]-) [SEQ ID NO: 100] — higher, 9.9 -log M
- B2 — higher, 10 -log M
- B3 — higher, 9.9 -log M
- H[Aib]EGTFTSDVSELKEEAA[Aib]QRFLEHLV-NH2 (not fully specified (residue 14)) [SEQ ID NO: 97] — higher, 11 -log M
- H[Aib]EGTFTSDVSTLK([AEEA-AEEA-γGlu-C20 diacid])ELAAAQRFLEHLV-NH2 (also: K14 lipidated with C20DA[γE][OEG][OEG]- or C18DA[γE][OEG][OEG]-) [SEQ ID NO: 11] — higher, 10.3 -log M
- B4 — higher, 10.8 -log M
- H[Aib]EGTFTSDVSTLK([AEEA-AEEA-γGlu-C20 diacid])EEAATQRFLEHLV-NH2 (also: K14 lipid also given as C18DA[γE][OEG][OEG]-) [SEQ ID NO: 102] — higher, 11 -log M
- H[Aib]EGTFTSDVSTLKEEAAAQRFLEHLV-NH2 (not fully specified (residue 14)) [SEQ ID NO: 96] — higher, 10.9 -log M
- B5 — higher, 10.1 -log M
- H[Aib]EGTFTSDVSELKEEAAAQRFLEHLV-NH2 (not fully specified (residue 14)) [SEQ ID NO: 98] — higher, 10.6 -log M
- H[Aib]EGTFTSD[Aib]SYLK([AEEA-AEEA-γGlu-C20 diacid])EEA[Aib]LQRFLEHLV-NH2 (also: K14 lipid also given as C18DA[γE][OEG][OEG]-) [SEQ ID NO: 103] — higher, 11.1 -log M
- H[Aib]EGTFTSDVSELKELAAQQRFLEHLV-NH2 (not fully specified (residue 14)) [SEQ ID NO: 99] — higher, 10.8 -log M
- H[Aib]EGTFTSDVSRLK([AEEA-AEEA-γGlu-C20 diacid])ELAA[Aib]QRFLEHLV-NH2 (also: K14 lipid also given as C18DA[γE][OEG][OEG]-) [SEQ ID NO: 10] — the same, 9.7 -log M
- B6 — higher, 10.1 -log M

Target: human secretin receptor (hSCTR) (human, UniProt P47872 23-440)
Assay: cell-based or functional assay

Sequence of human secretin receptor (hSCTR) (P47872 23-440): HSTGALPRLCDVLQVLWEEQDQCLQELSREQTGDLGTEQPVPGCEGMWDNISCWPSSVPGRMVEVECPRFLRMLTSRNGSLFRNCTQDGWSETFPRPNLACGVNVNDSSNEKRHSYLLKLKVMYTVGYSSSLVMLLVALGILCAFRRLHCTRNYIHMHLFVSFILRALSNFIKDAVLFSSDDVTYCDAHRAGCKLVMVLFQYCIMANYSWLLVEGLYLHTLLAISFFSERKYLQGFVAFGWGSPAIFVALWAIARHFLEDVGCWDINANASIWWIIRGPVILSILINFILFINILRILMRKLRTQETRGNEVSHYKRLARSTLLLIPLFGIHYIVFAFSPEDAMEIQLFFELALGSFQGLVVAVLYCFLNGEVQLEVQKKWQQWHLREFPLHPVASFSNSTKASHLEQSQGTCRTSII

Point of comparison: H[Aib]EGTFTSDVSELKEEAAAQRFLEHLV-NH2 (not fully specified (residue 14)) [SEQ ID NO: 98], “pEC50 hSCTR” value 5.9 -log M. Against it:
- B1 — higher, 6 -log M
- H[Aib]EGTFTSDVSTLK([AEEA-AEEA-γGlu-C20 diacid])EFAAQQRFLEHLV-NH2 (also: K14 lipid also given as C18DA[γE][OEG][OEG]-) [SEQ ID NO: 100] — higher, 6.1 -log M
- B2 — lower, 5.8 -log M
- H[Aib]EGTFTSDVSVLK([AEEA-AEEA-γGlu-C20 diacid])ETAA[Aib]QRFLEHLV-NH2 (also: K14 lipid also given as C18DA[γE][OEG][OEG]-) [SEQ ID NO: 101] — higher, 6 -log M
- B3 — higher, 6.5 -log M
- H[Aib]EGTFTSDVSELKEEAA[Aib]QRFLEHLV-NH2 (not fully specified (residue 14)) [SEQ ID NO: 97] — lower, 5.8 -log M
- H[Aib]EGTFTSDVSTLK([AEEA-AEEA-γGlu-C20 diacid])ELAAAQRFLEHLV-NH2 (also: K14 lipidated with C20DA[γE][OEG][OEG]- or C18DA[γE][OEG][OEG]-) [SEQ ID NO: 11] — higher, 6.2 -log M
- B4 — lower, 5.8 -log M
- H[Aib]EGTFTSDVSTLK([AEEA-AEEA-γGlu-C20 diacid])EEAATQRFLEHLV-NH2 (also: K14 lipid also given as C18DA[γE][OEG][OEG]-) [SEQ ID NO: 102] — higher, 7.1 -log M
- H[Aib]EGTFTSDVSTLKEEAAAQRFLEHLV-NH2 (not fully specified (residue 14)) [SEQ ID NO: 96] — higher, 6.4 -log M
- B5 — the same, 5.9 -log M
- H[Aib]EGTFTSD[Aib]SYLK([AEEA-AEEA-γGlu-C20 diacid])EEA[Aib]LQRFLEHLV-NH2 (also: K14 lipid also given as C18DA[γE][OEG][OEG]-) [SEQ ID NO: 103] — lower, 5 -log M
- H[Aib]EGTFTSDVSELKELAAQQRFLEHLV-NH2 (not fully specified (residue 14)) [SEQ ID NO: 99] — higher, 6.1 -log M
- H[Aib]EGTFTSDVSRLK([AEEA-AEEA-γGlu-C20 diacid])ELAA[Aib]QRFLEHLV-NH2 (also: K14 lipid also given as C18DA[γE][OEG][OEG]-) [SEQ ID NO: 10] — higher, 6.3 -log M
- B6 — lower, 5.5 -log M

Source: patent publication US20260201008A1, “SECRETIN-DERIVED GLP1R SELECTIVE AGONISTS” (GUBRA A/S, priority 2023, published 2026)
